Laboratory results reported in article PMC9496920, “Anti-PTK7 Monoclonal Antibodies Inhibit Angiogenesis by Suppressing PTK7 Function” (Cancers, 2022).

Target: KDR-HA (human KDR with a C-terminal HA tag) (human, UniProt P35968 20-1356)
Assay: cell-based or functional assay

KDR-HA (human KDR with a C-terminal HA tag), sequence (P35968 20-1356): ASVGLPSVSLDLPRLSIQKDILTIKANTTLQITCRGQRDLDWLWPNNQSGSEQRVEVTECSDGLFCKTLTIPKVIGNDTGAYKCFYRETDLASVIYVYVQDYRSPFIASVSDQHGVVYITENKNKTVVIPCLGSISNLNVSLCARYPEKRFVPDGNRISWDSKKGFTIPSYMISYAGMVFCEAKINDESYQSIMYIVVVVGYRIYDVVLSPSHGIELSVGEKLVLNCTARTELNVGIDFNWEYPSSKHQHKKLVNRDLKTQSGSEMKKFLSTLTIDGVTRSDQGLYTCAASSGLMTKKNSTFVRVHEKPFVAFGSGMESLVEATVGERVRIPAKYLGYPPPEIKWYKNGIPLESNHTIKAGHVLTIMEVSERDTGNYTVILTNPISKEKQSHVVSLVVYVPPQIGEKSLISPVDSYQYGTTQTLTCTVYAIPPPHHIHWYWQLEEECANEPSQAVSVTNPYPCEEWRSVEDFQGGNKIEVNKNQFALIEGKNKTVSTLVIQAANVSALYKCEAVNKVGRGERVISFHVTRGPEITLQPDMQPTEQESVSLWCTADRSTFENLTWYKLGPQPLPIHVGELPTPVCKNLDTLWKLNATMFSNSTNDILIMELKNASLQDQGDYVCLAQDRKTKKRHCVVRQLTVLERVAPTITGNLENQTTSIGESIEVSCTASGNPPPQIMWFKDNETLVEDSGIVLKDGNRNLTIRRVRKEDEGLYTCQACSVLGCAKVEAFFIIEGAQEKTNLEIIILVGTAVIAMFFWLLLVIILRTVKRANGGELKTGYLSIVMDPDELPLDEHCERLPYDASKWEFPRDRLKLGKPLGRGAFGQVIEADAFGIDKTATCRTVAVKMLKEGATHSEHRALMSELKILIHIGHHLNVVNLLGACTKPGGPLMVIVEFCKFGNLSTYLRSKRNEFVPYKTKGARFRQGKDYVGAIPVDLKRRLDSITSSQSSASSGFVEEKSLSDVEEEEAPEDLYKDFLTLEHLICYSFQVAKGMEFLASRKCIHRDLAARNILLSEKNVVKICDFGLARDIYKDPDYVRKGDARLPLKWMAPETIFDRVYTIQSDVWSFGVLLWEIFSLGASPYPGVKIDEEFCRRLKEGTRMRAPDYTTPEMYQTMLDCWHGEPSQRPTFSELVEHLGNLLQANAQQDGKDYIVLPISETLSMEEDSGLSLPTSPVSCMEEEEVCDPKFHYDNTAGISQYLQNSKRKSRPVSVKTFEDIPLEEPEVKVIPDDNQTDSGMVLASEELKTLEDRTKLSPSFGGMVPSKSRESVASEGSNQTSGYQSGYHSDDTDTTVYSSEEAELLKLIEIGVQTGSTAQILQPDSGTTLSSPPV

B1: PTK7-FLAG (human PTK7 with a C-terminal FLAG tag) (receptor, UniProt Q13308 31-1070, looked up)
chain: AIVFIKQPSSQDALQGRRALLRCEVEAPGPVHVYWLLDGAPVQDTERRFAQGSSLSFAAVDRLQDSGTFQCVARDDVTGEEARSANASFNIKWIEAGPVVLKHPASEAEIQPQTQVTLRCHIDGHPRPTYQWFRDGTPLSDGQSNHTVSSKERNLTLRPAGPEHSGLYSCCAHSAFGQACSSQNFTLSIADESFARVVLAPQDVVVARYEEAMFHCQFSAQPPPSLQWLFEDETPITNRSRPPHLRRATVFANGSLLLTQVRPRNAGIYRCIGQGQRGPPIILEATLHLAEIEDMPLFEPRVFTAGSEERVTCLPPKGLPEPSVWWEHAGVRLPTHGRVYQKGHELVLANIAESDAGVYTCHAANLAGQRRQDVNITVATVPSWLKKPQDSQLEEGKPGYLDCLTQATPKPTVVWYRNQMLISEDSRFEVFKNGTLRINSVEVYDGTWYRCMSSTPAGSIEAQARVQVLEKLKFTPPPQPQQCMEFDKEATVPCSATGREKPTIKWERADGSSLPEWVTDNAGTLHFARVTRDDAGNYTCIASNGPQGQIRAHVQLTVAVFITFKVEPERTTVYQGHTALLQCEAQGDPKPLIQWKGKDRILDPTKLGPRMHIFQNGSLVIHDVAPEDSGRYTCIAGNSCNIKHTEAPLYVVDKPVPEESEGPGSPPPYKMIQTIGLSVGAAVAYIIAVLGLMFYCKKRCKAKRLQKQPEGEEPEMECLNGGPLQNGQPSAEIQEEVALTSLGSGPAATNKRHSTSDKMHFPRSSLQPITTLGKSEFGEVFLAKAQGLEEGVAETLVLVKSLQSKDEQQQLDFRRELEMFGKLNHANVVRLLGLCREAEPHYMVLEYVDLGDLKQFLRISKSKDEKLKSQPLSTKQKVALCTQVALGMEHLSNNRFVHKDLAARNCLVSAQRQVKVSALGLSKDVYNSEYYHFRQAWVPLRWMSPEAILEGDFSTKSDVWAFGVLMWEVFTHGEMPHGGQADDEVLADLQAGKARLPQPEGCPSKLYRLMQRCWALSPKDRPSFSEIASALGDSTVDSKP
In the case of B1, the “VEGF-induced phosphorylation of KDR (Tyr1175) in HUVECs pre-treated with mAb-32 (10 ug/mL), Western blot, relative to VEGF alone” value is reported as 53.2 % of VEGF-alone control and the “VEGF-induced phosphorylation of KDR (Tyr1175) in HUVECs pre-treated with mAb-43 (10 ug/mL), Western blot, relative to VEGF alone” value is reported as 56.9 % of VEGF-alone control.
